Experiment [1] has as its target T1, mouse Smoothened (SMO) residues 64-566, crystallization construct (Mus musculus, UniProt P56726). Briefly: SPR.
Experiment [2] addresses T1, mouse Smoothened (SMO) residues 64-566, …. As to the kind of experiment: SPR. The source holds these as a separate data set.

Like-named read-outs stand apart in the source and are kept apart here.

T1 sequence (P56726 64-566): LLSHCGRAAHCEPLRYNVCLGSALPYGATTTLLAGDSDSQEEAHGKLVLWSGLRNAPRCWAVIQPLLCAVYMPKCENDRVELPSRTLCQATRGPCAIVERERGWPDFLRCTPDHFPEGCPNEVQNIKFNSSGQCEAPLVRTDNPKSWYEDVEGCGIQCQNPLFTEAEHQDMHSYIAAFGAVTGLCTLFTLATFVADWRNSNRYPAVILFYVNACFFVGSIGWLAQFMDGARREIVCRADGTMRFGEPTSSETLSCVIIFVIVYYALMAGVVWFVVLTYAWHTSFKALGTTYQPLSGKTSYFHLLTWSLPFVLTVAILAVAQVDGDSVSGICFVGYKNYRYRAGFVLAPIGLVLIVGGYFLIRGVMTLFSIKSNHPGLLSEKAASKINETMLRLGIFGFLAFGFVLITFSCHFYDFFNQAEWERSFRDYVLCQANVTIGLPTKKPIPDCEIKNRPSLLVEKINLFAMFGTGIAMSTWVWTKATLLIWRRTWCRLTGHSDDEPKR

B1: NbSmo8 with a C-terminal hexahistidine tag (VHH)
VHH: QVQLQESGGGLVQAGGSLRLSCAASGYIFSSYAMGWYRQAPGKEREFVATIGWGTITYYADSVKGRFTISRDNAKNTVYLQMNSLKPEDTAVYYCAAQDLLYYSFPGDHAYWGQGTQVTVSS
With B1, the values for the Kd in experiment [1] and in experiment [2] were 168 nM and 117 nM, respectively.

Values taken from paper PMC6709672 (Nature, 2019).
